Source: patent US20220195023A1 (ATRECA, published 2022)

Biological target: T1, CSP Protein (Plasmodium falciparum, UniProt Q7K740 19-374)
T1 construct: also called circumsporozoite protein; complete CSP protein
Assay: SPR, antibody on chip;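 note: antibodies immobilized on a Carterra chip, directly or via anti-human Fc capture, at two spots each, with CSP flowed over at 4-5 concentrations peaking at 0.5-8 µg/mL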
Protocol: For SPR, each antibody was either directly coupled to a Carterra Chip or coupled using a goat anti-human Fc antibody. The uncoupled antibodies were washed off and various concentration gradients of the targets were flowed over the antibodies, where the highest concentration of each target was in the range 0.5-8 μg/mL. Each antibody was immobilized in two different locations on the chip to allow for duplicate measurements. The affinity for each antibody-target combination was determined using 4-5 target concentrations in Mathematica software. If variation between the two duplicates was >3-fold, the antibody-target measurement was repeated.

T1 sequence (Q7K740 19-374 limits assumed): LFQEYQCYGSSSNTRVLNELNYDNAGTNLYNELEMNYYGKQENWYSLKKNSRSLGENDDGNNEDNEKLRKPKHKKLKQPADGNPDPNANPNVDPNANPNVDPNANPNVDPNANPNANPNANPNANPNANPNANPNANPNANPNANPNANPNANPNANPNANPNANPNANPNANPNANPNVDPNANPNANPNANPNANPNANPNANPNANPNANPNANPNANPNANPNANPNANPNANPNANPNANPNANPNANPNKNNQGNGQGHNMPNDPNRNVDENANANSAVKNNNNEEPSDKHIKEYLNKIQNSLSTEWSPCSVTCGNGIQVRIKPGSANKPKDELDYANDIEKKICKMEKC

B1: AB-007051 (antibody, V domains shown)
VH: QMQLVESGGGVVQPGRSLRLSCTASGFTFSTYAMHWVRQSPGQGLQWVAVISYHSRNKYYEDSVRGRFTISRDNSKNTLYLQMNSLRAEDTAVYYCARDGYSSSFFDFWGQGTLVTVSS
VL: DIQMTQSPSTLSASVGDRVAITCRASQSISRWLAWYQQQPGKAPKLLMSGASVLESGVPSRFSGSGSGTEFTLTISSLQPDDFATYYCQHYNSYFVTFGQGTKVEIK
B1 showed a Kd of 0.0414 nM.

B2: AB-007056 (antibody, V domains shown)
VH: QMQLVESGGGVVQPGRSLRLSCTASGFTFSTYAMHWVRQSPGQGLQWVAVISYHSTNKYYEDSVRGRFTISRDNSKNTLYLQMNSLRAEDTAVYYCARDGYQSSFFDFWGQGTLVTVSS
VL: DIQMTQSPSTLSASVGDRVAITCRASQSISRWLAWYQQQPGKAPKLLMSGASVLESGVPSRFSGSGSGTEFTLTISSLQPDDFATYYCQHYNSYFVTFGQGTKVEIK
Work on B2 yielded a Kd of 0.042 nM.

B3: AB-007059 (antibody, V domains shown)
VH: QMQLVESGGGVVQPGRSLRLSCTASGFTFSTYAMHWVRQSPGQGLQWVAVISYHSTNKYYEDSVRGRFTISRDNSKNTLYLQMNSLRAEDTAVYYCARDGYSSTFFDFWGQGTLVTVSS
VL: DIQMTQSPSTLSASVGDRVAITCRASQSISRWLAWYQQQPGKAPKLLMSGASVLESGVPSRFSGSGSGTEFTLTISSLQPDDFATYYCQHYNSYFVTFGQGTKVEIK
B3 gave a Kd of 1.08 nM.

B4: AB-007055 (antibody, V domains shown)
VH: QMQLVESGGGVVQPGRSLRLSCTASGFTFSTYAMHWVRQSPGQGLQWVAVISYHSTNKYYEDSVRGRFTISRDNSKNTLYLQMNSLRAEDTAVYYCARDGYTSSFFDFWGQGTLVTVSS
VL: DIQMTQSPSTLSASVGDRVAITCRASQSISRWLAWYQQQPGKAPKLLMSGASVLESGVPSRFSGSGSGTEFTLTISSLQPDDFATYYCQHYNSYFVTFGQGTKVEIK
Work on B4 yielded a Kd of 0.374 nM.

B5: AB-007066 (antibody, V domains shown)
VH: QMQLVESGGGVVQPGRSLRLSCTASGFTFSTYAMHWVRQSPGQGLQWVAVISYHSTNKYYEDSVRGRFTISRDNSKNTLYLQMNSLRAEDTAVYYCARDGYSSSFFDFWGQGTLVTVSS
VL: DIQMTQSPSTLSASVGDRVAITCRASQSISRWLAWYQQQPGKAPKLLMSQASVLESGVPSRFSGSGSGTEFTLTISSLQPDDFATYYCQHYNSYFVTFGQGTKVEIK
Work on B5 yielded a Kd of 0.376 nM.

B6: AB-007053 (antibody, V domains shown)
VH: QMQLVESGGGVVQPGRSLRLSCTASGFTFSTYAMHWVRQSPGQGLQWVAVISYHSTQKYYEDSVRGRFTISRDNSKNTLYLQMNSLRAEDTAVYYCARDGYSSSFFDFWGQGTLVTVSS
VL: DIQMTQSPSTLSASVGDRVAITCRASQSISRWLAWYQQQPGKAPKLLMSGASVLESGVPSRFSGSGSGTEFTLTISSLQPDDFATYYCQHYNSYFVTFGQGTKVEIK
Binder B6 has a Kd of 0.298 nM.

B7: AB-007063 (antibody, V domains shown)
VH: QMQLVESGGGVVQPGRSLRLSCTASGFTFSTYAMHWVRQSPGQGLQWVAVISYHSTNKYYEDSVRGRFTISRDNSKNTLYLQMNSLRAEDTAVYYCARDGYSSSFFDFWGQGTLVTVSS
VL: DIQMTQSPSTLSASVGDRVAITCRASQSISRWLAWYQQQPGKAPKLLMAGASVLESGVPSRFSGSGSGTEFTLTISSLQPDDFATYYCQHYNSYFVTFGQGTKVEIK
Binder B7 has a Kd of 0.0524 nM.

B8: AB-007061 (antibody, V domains shown)
VH: QMQLVESGGGVVQPGRSLRLSCTASGFTFSTYAMHWVRQSPGQGLQWVAVISYHSTNKYYEDSVRGRFTISRDNSKNTLYLQMNSLRAEDTAVYYCARDGYSSSFFDFWGQGTLVTVSS
VL: DIQMTQSPSTLSASVGDRVAITCRASQSIDRWLAWYQQQPGKAPKLLMSGASVLESGVPSRFSGSGSGTEFTLTISSLQPDDFATYYCQHYNSYFVTFGQGTKVEIK
With B8 the Kd was 0.0504 nM.

B9: AB-007062 (antibody, V domains shown)
VH: QMQLVESGGGVVQPGRSLRLSCTASGFTFSTYAMHWVRQSPGQGLQWVAVISYHSTNKYYEDSVRGRFTISRDNSKNTLYLQMNSLRAEDTAVYYCARDGYSSSFFDFWGQGTLVTVSS
VL: DIQMTQSPSTLSASVGDRVAITCRASQSISSWLAWYQQQPGKAPKLLMSGASVLESGVPSRFSGSGSGTEFTLTISSLQPDDFATYYCQHYNSYFVTFGQGTKVEIK
In the case of B9, the Kd is reported as 0.0849 nM.

B10: AB-007052 (antibody, V domains shown)
VH: QMQLVESGGGVVQPGRSLRLSCTASGFTFSTYAMHWVRQSPGQGLQWVAVISYHSNNKYYEDSVRGRFTISRDNSKNTLYLQMNSLRAEDTAVYYCARDGYSSSFFDFWGQGTLVTVSS
VL: DIQMTQSPSTLSASVGDRVAITCRASQSISRWLAWYQQQPGKAPKLLMSGASVLESGVPSRFSGSGSGTEFTLTISSLQPDDFATYYCQHYNSYFVTFGQGTKVEIK
B10 showed a Kd of 0.0261 nM.

B11: AB-007065 (antibody, V domains shown)
VH: QMQLVESGGGVVQPGRSLRLSCTASGFTFSTYAMHWVRQSPGQGLQWVAVISYHSTNKYYEDSVRGRFTISRDNSKNTLYLQMNSLRAEDTAVYYCARDGYSSSFFDFWGQGTLVTVSS
VL: DIQMTQSPSTLSASVGDRVAITCRASQSISRWLAWYQQQPGKAPKLLMSKASVLESGVPSRFSGSGSGTEFTLTISSLQPDDFATYYCQHYNSYFVTFGQGTKVEIK
For B11, the Kd was 0.454 nM.

B12: AB-007054 (antibody, V domains shown)
VH: QMQLVESGGGVVQPGRSLRLSCTASGFTFSTYAMHWVRQSPGQGLQWVAVISYHSTNKYYEDSVRGRFTISRDNSKNTLYLQMNSLRAEDTAVYYCARDGYASSFFDFWGQGTLVTVSS
VL: DIQMTQSPSTLSASVGDRVAITCRASQSISRWLAWYQQQPGKAPKLLMSGASVLESGVPSRFSGSGSGTEFTLTISSLQPDDFATYYCQHYNSYFVTFGQGTKVEIK
B12 gave a Kd of 0.17 nM.

B13: AB-007064 (antibody, V domains shown)
VH: QMQLVESGGGVVQPGRSLRLSCTASGFTFSTYAMHWVRQSPGQGLQWVAVISYHSTNKYYEDSVRGRFTISRDNSKNTLYLQMNSLRAEDTAVYYCARDGYSSSFFDFWGQGTLVTVSS
VL: DIQMTQSPSTLSASVGDRVAITCRASQSISRWLAWYQQQPGKAPKLLMTGASVLESGVPSRFSGSGSGTEFTLTISSLQPDDFATYYCQHYNSYFVTFGQGTKVEIK
Binder B13 has a Kd of 0.556 nM.

B14: AB-007060 (antibody, V domains shown)
VH: QMQLVESGGGVVQPGRSLRLSCTASGFTFSTYAMHWVRQSPGQGLQWVAVISYHSTNKYYEDSVRGRFTISRDNSKNTLYLQMNSLRAEDTAVYYCARDGYSSSYFDFWGQGTLVTVSS
VL: DIQMTQSPSTLSASVGDRVAITCRASQSISRWLAWYQQQPGKAPKLLMSGASVLESGVPSRFSGSGSGTEFTLTISSLQPDDFATYYCQHYNSYFVTFGQGTKVEIK
Work on B14 yielded a Kd of 0.199 nM.

B15: AB-007058 (antibody, V domains shown)
VH: QMQLVESGGGVVQPGRSLRLSCTASGFTFSTYAMHWVRQSPGQGLQWVAVISYHSTNKYYEDSVRGRFTISRDNSKNTLYLQMNSLRAEDTAVYYCARDGYSTSFFDFWGQGTLVTVSS
VL: DIQMTQSPSTLSASVGDRVAITCRASQSISRWLAWYQQQPGKAPKLLMSGASVLESGVPSRFSGSGSGTEFTLTISSLQPDDFATYYCQHYNSYFVTFGQGTKVEIK
With B15 the Kd was 0.149 nM.

B16: AB-007057 (antibody, V domains shown)
VH: QMQLVESGGGVVQPGRSLRLSCTASGFTFSTYAMHWVRQSPGQGLQWVAVISYHSTNKYYEDSVRGRFTISRDNSKNTLYLQMNSLRAEDTAVYYCARDGYHSSFFDFWGQGTLVTVSS
VL: DIQMTQSPSTLSASVGDRVAITCRASQSISRWLAWYQQQPGKAPKLLMSGASVLESGVPSRFSGSGSGTEFTLTISSLQPDDFATYYCQHYNSYFVTFGQGTKVEIK
Work on B16 yielded a Kd of 0.153 nM.
